{"source": "patent US20040132033", "experiment_in_all_cases": "EMSA", "key": {"SBS#1764 ZFP (synthetic)": {"tested_on": "SBS#1764 ZFP (synthetic)", "conditions": "100 mM KCl, 1 mM MgCl2, 100 uM ZnCl2, pH 7.5, RT"}, "SBS#519 ZFP (synthetic)": {"tested_on": "SBS#519 ZFP (synthetic)", "conditions": "listed twice (-343 and -329, same 9 bp, SEQ 21 and 23); 100 mM KCl, 1 mM MgCl2, 100 uM ZnCl2, pH 7.5, RT"}, "SBS#1760 ZFP (synthetic)": {"tested_on": "SBS#1760 ZFP (synthetic)", "conditions": "100 mM KCl, 1 mM MgCl2, 100 uM ZnCl2, pH 7.5, RT"}, "SBS#779 ZFP (synthetic)": {"tested_on": "SBS#779 ZFP (synthetic)", "conditions": "100 mM KCl, 1 mM MgCl2, 100 uM ZnCl2, pH 7.5, RT"}, "SBS#1755 ZFP (synthetic)": {"tested_on": "SBS#1755 ZFP (synthetic)", "conditions": "100 mM KCl, 1 mM MgCl2, 100 uM ZnCl2, pH 7.5, RT"}, "SBS#1140 ZFP (synthetic)": {"tested_on": "SBS#1140 ZFP (synthetic)", "conditions": "100 mM KCl, 1 mM MgCl2, 100 uM ZnCl2, pH 7.5, RT"}, "SBS#386 ZFP (synthetic)": {"tested_on": "SBS#386 ZFP (synthetic)", "conditions": "100 mM KCl, 1 mM MgCl2, 100 uM ZnCl2, pH 7.5, RT"}, "SBS#713 ZFP (synthetic)": {"tested_on": "SBS#713 ZFP (synthetic)", "conditions": "100 mM KCl, 1 mM MgCl2, 100 uM ZnCl2, pH 7.5, RT"}, "SBS#1757 ZFP (synthetic)": {"tested_on": "SBS#1757 ZFP (synthetic)", "conditions": "100 mM KCl, 1 mM MgCl2, 100 uM ZnCl2, pH 7.5, RT"}, "SBS#781 ZFP (synthetic)": {"tested_on": "SBS#781 ZFP (synthetic)", "conditions": "100 mM KCl, 1 mM MgCl2, 100 uM ZnCl2, pH 7.5, RT"}, "SBS#1772 ZFP (synthetic)": {"tested_on": "SBS#1772 ZFP (synthetic)", "conditions": "100 mM KCl, 1 mM MgCl2, 100 uM ZnCl2, pH 7.5, RT"}, "SBS#1750 ZFP (synthetic)": {"tested_on": "SBS#1750 ZFP (synthetic)", "conditions": "100 mM KCl, 1 mM MgCl2, 100 uM ZnCl2, pH 7.5, RT"}, "SBS#1770 ZFP (synthetic)": {"tested_on": "SBS#1770 ZFP (synthetic)", "conditions": "target also SEQ 111; 100 mM KCl, 1 mM MgCl2, 100 uM ZnCl2, pH 7.5, RT"}, "SBS#1756 ZFP (synthetic)": {"tested_on": "SBS#1756 ZFP (synthetic)", "conditions": "100 mM KCl, 1 mM MgCl2, 100 uM ZnCl2, pH 7.5, RT"}, "SBS#705 ZFP (synthetic)": {"tested_on": "SBS#705 ZFP (synthetic)", "conditions": "100 mM KCl, 1 mM MgCl2, 100 uM ZnCl2, pH 7.5, RT"}}, "note": "pKd: −log10 of the molar value.", "data": [{"sequence": "CAAGTGGGT (double strand) [SBS#1764 target (-286)]", "values": [{"measurement": "pKd", "setting": "SBS#1764 ZFP (synthetic)", "value": 9.96}]}, {"sequence": "GGGGAGGAG (double strand) [SBS#519 target (-343 and -329)]", "values": [{"measurement": "pKd", "setting": "SBS#519 ZFP (synthetic)", "value": 8.95}]}, {"sequence": "ATGGCCGGG (double strand) [SBS#1760 target (-299)]", "values": [{"measurement": "pKd", "setting": "SBS#1760 ZFP (synthetic)", "value": 9.38}]}, {"sequence": "CGGGGAGCA (double strand) [SBS#779 target (-356)]", "values": [{"measurement": "pKd", "setting": "SBS#779 ZFP (synthetic)", "value": 9.30}]}, {"sequence": "CGGGAGGCC (double strand) [SBS#1755 target (-319)]", "values": [{"measurement": "pKd", "setting": "SBS#1755 ZFP (synthetic)", "value": 11.22}]}, {"sequence": "AAGGGTGCG (double strand) [SBS#1140 target (-287)]", "values": [{"measurement": "pKd", "setting": "SBS#1140 ZFP (synthetic)", "value": 9.52}]}, {"sequence": "GGGGCGGAG (double strand) [SBS#386 target (-111)]", "values": [{"measurement": "pKd", "setting": "SBS#386 ZFP (synthetic)", "value": 9.40}]}, {"sequence": "GGTGAGGAG (double strand) [SBS#713 target (-127)]", "values": [{"measurement": "pKd", "setting": "SBS#713 ZFP (synthetic)", "value": 9.82}]}, {"sequence": "GGTGCGGAG (double strand) [SBS#1757 target (-290)]", "values": [{"measurement": "pKd", "setting": "SBS#1757 ZFP (synthetic)", "value": 10.30}]}, {"sequence": "GGGGAGCAG (double strand) [SBS#781 target (-357)]", "values": [{"measurement": "pKd", "setting": "SBS#781 ZFP (synthetic)", "value": 8.37}]}, {"sequence": "GTGGGTGAT (double strand) [SBS#1772 target (-277)]", "values": [{"measurement": "pKd", "setting": "SBS#1772 ZFP (synthetic)", "value": 11.22}]}, {"sequence": "ATGGAGGGC (double strand) [SBS#1750 target (-147)]", "values": [{"measurement": "pKd", "setting": "SBS#1750 ZFP (synthetic)", "value": 10.96}]}, {"sequence": "CGGGGAGGA (double strand) [SBS#1756/1770 target (-342)]", "values": [{"measurement": "pKd", "setting": "SBS#1770 ZFP (synthetic)", "value": 11.00}, {"measurement": "pKd", "setting": "SBS#1756 ZFP (synthetic)", "value": 9.90}]}, {"sequence": "GGGGCGGGG (double strand) [SBS#705 target (-201)]", "values": [{"measurement": "pKd", "setting": "SBS#705 ZFP (synthetic)", "value": 11.00}]}]}
